# Laboratory results taken from article PMC7144898 (Nucleic Acids Research, 2020).
# T1: Recombinant N-terminal (His)6-tagged P. abyssi ASH-Ski2, full length (Pyrococcus abyssi, UniProt Q9V2M1 1-855)
# T1 sequence (looked up): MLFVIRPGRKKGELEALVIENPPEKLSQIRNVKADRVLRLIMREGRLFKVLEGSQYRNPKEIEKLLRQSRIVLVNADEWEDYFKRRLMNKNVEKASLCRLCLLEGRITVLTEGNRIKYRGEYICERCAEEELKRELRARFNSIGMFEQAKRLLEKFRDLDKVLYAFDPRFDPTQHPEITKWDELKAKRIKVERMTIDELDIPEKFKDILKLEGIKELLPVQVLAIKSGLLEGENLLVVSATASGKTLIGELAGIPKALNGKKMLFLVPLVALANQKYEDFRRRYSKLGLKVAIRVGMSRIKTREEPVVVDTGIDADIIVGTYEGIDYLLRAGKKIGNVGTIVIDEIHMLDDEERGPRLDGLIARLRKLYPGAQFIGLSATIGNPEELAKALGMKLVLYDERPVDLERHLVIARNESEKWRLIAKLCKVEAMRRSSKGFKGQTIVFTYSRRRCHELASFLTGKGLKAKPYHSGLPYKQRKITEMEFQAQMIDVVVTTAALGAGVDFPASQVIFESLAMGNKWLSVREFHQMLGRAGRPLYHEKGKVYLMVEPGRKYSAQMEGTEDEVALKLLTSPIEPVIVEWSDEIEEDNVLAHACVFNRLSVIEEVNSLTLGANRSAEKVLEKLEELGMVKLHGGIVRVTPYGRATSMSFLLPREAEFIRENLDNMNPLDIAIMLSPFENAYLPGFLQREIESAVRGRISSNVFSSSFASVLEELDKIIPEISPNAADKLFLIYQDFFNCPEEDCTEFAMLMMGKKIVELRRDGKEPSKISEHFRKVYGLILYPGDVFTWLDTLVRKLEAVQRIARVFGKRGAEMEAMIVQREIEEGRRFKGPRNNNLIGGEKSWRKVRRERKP
# Target: T1, Recombinant N-terminal (His)6-tagged P. …
# Assay: co-sedimentation
binder,measurement,value
"Recombinant aRNase J from P. abyssi with C-terminal (His)6-tag (enzyme, Pyrococcus abyssi, UniProt Q9V076 1-451, looked up) MWEEINMIKIYTLGGYEEVGKNMTAVEYNGEVVIVDMGIRLDRVLIHEDVEFQKMSSKDLRKLGAIPDDRPIRNKKVVAIALSHGHLDHIGAVGKLAPHYPDVPIYGTPYTIRLAKSEIKGEEYFEVTNPLYETNYGEIVQVSENLAIEFVQITHSIPQSSIVVIHTPEGAVVYACDYKFDNNHPYGERPDYKRLKELGKEGVKVLIAESTRVAEETKTPSEAVAKMLLEDFFLYEGMEADGLIATTFASHIARLQELIEIANKMGRQAIFIGRSLAKYTGIAKQLGLIKMKGSRVLRSPNAVSKVLKEVSQARENYLLIVTGHQGEPGAILTRMANGELYDIGPRDTVVFSAGVIPNPLNVAQRYALETKLRMKGVRMIKNLHVSGHASKEDHRYLIRMLNPEYIVPAHGEFRMLTHYAELAEEEGYMIGKEVFISRNGHVVEIPGSLEG",binding result,binds
